T1: murine IL-11 (mouse, UniProt P47873 22-199)
T1 construct: bought from Invigate; also called mIL-11; mIL11
T1 sequence: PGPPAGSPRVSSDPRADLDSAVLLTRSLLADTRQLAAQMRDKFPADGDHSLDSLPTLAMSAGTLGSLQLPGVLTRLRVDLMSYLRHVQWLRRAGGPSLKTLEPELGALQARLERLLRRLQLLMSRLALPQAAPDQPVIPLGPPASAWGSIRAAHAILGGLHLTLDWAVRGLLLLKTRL

T2: murine IL-11 (Invigate, e.g., lot #C210819-09) (mouse, UniProt P47873 22-199)
T2 construct: Biotinylated and captured on streptavidin plates in the Di-complex ELISA; unmodified analyte in SPR; also called mIL11; mIL-11
T2 sequence: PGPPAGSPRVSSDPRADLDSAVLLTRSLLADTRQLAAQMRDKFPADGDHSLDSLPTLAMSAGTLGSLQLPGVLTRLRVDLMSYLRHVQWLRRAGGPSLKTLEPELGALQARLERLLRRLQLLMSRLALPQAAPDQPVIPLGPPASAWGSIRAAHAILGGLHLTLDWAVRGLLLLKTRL


Key:
[1] = target: murine IL-11 (Invigate, e.g., lot #C210819-09) (mouse) (UniProt P47873); experiment: Tri-complex ELISA (mIL-11, mIL-11Ra-Fc, mgp130-Fc)
[2] = target: human IL-11 (Invigate, e.g., lot #C121021-19) (human) (UniProt P20809); experiment: Tri-complex ELISA (hIL-11, mIL-11Ra-Fc, hgp130-Fc)
[3] = target: human IL-11 (Invigate, e.g., lot #C121021-19) (human) (UniProt P20809); experiment: Di-complex ELISA (hIL-11 coated, canine IL11RA-hFc)
[4] = target: murine IL-11 (Invigate, e.g., lot #C210819-09) (mouse) (UniProt P47873); experiment: Di-complex ELISA (mIL-11 coated, canine IL11RA-hFc)
[5] = target: murine IL-11 (Invigate, e.g., lot #C210819-09) (mouse) (UniProt P47873); experiment: cell-based or functional assay
[6] = target: human IL-11 (Invigate, e.g., lot #C121021-19) (human) (UniProt P20809); experiment: cell-based or functional assay
[7] = target: murine IL-11 (Invigate, e.g., lot #C210819-09) (mouse) (UniProt P47873); experiment: SPR, antibody captured, single IL-11 concentration 200 nM
[8] = target: human IL-11 (Invigate, e.g., lot #C121021-19) (human) (UniProt P20809); experiment: as above
[9] = target: T1, murine IL-11; experiment: SPR, antibody captured, IL-11 analyte
Protocol: Antibodies were captured via anti-mouse Fc IgGs (“Mouse antibody capture kit, Order No. BR100383, Cytiva) covalently amine coupled to a Series S CMS sensor chip (Cytiva). The amine coupling was carried out according to the manufacturer's instructions using 1-ethyl-3-(3-dimethylaminopropyl) carbodiimide hydrochloride (EDC), N-hydroxysuccinimide ([…]) and ethanolamine HCl, pH 8.5 (“Amine Coupling Kit” BR-1000-50, Cytiva). Human IL-11 (Invigate, e.g., lot #C121021-19), and murine IL-11 (Invigate, e.g., lot #C210819-09) were used as analytes. […] Based on that experiment an IL-11 concentration range was chosen to optimally determine kinetics and affinity of anti-IL-11 antibodies in multicycle kinetics mode. The sensor surface was regenerated with glycine pH 1.7 after each antigen injection. Obtained sensorgrams were double referenced (subtraction of reference flow cell signal and buffer injection) and were fitted to a 1:1 Langmuir binding model to derive kinetic data using the Biacore T200 Evaluation software or the Biacore Insight software.
42 hits from the IL-11 and IL-2Ra screening analysis were selected, expressed by transient transfection of mammalian cells and purified as described in Example 15. Antibodies were then tested for human IL-11 and murine IL-11 binding by SPR as described in Example 16.

[10] = target: T2, murine IL-11 (Invigate, e.g., lot …); experiment: Tri-complex ELISA (mIL-11, mIL-11Ra-Fc, mgp130-Fc)
[11] = target: human IL-11 (human) (UniProt P20809); experiment: Di-complex ELISA, competitor canine IL11RA-hFc, IL-11 immobilised
[12] = target: cynomolgus IL-11 (cynomolgus) (UniProt P20808); experiment: cell-based or functional assay
[13] = target: human IL-11 (human) (UniProt P20809); experiment: cell-based or functional assay

| Molecule | Efficacy (%) [1] [%] | Efficacy (%) [2] [%] | Efficacy (%) [3] [%] | Efficacy (%) [4] [%] | Efficacy (%)*, RGA [5] [%] | Efficacy (%)*, RGA [6] [%] | IC50 [1] [nM] | Kd [7] [nM] | Kd [8] [nM] | IC50 [2] [nM] | IC50 [3] [nM] | IC50 [4] [nM] | further results |
| --- | --- | --- | --- | --- | --- | --- | --- | --- | --- | --- | --- | --- | --- |
| GTX34009 (Genetex, clone 6D9A1) (antibody) | 0 | 1.1 | 10.3 | 11.7 | 0 | 21.3 | – | – | – | – | – | – | – |
| GTX52814 (Genetex, clone 9T27) (antibody) | 106 | 36.9 | 74.9 | 89.9 | 75.5 | 5.1 | 17 | 2 | 3.3 | 14 | 1.9 | 4.7 | – |
| LS-C104441 (LS-bio) (antibody) | 98.4 | 65.6 | 71.5 | 91.2 | 88 | 42.6 | 3.8 | 2.2 | 3.9 | 20 | 5.3 | 3.5 | IC50 [M], RGA [5]: 3.9e-09 M |
| LS-C193526 (LS-bio, clone KT8) (antibody) | 90.3 | 78.5 | 90.1 | 96.2 | 88.3 | 52.7 | 6.6 | 6.2 | 6.3 | 10 | 10 | 6.5 | IC50 [M], RGA [5]: 5.6e-09 M; IC50 [M], RGA [6]: 5e-08 M |
| MA5-23711 (Thermo Fisher Scientific, clone 22616) (antibody) | 62.3 | 34.1 | 51.1 | 70.5 | 47.6 | 19.9 | – | 2 | 3.6 | 19 | 60 | 29 | – |
| MA5-30695 (Thermo Fisher Scientific, clone 9) (antibody) | 1.5 | 0 | 0 | 0 | 15.6 | 23.9 | – | – | – | – | – | – | – |
| MA5-30696 (Thermo Fisher Scientific, clone 12) (antibody) | 4.3 | 4.7 | 8.1 | 3.1 | 17.2 | 4.9 | – | – | – | – | – | – | – |
| TPP-14250 (R&D Systems, #MAB218) (antibody) | 81.1 | 81.1 | – | – | – | – | 8 | – | – | 15 | – | – | Efficacy (%), Stat3 reporter gene assay [5]: 69.1%; IC50 [M], Stat3 reporter gene assay [5]: 1.4e-07 M; Efficacy (%), Stat3 reporter gene assay [6]: 27.1%; IC50 [M], Stat3 reporter gene assay [6]: 2.4e-10 M |
| TPP-26333 (antibody, IgG1, V domains shown) VH: EVQLLESGGGLVQPGGSLRLSCAASGFTFSSYGFHWVRQAPGKGLEWVSVISYDGSYKYYADSVKGRFTISRDNSKNTLYLQMNSLRAEDTAVYYCAAGVPDYWGQGTLVTVSS VL: QSVLTQPPSASGTPGQRVTISCTGSSSNIGAGYDVHWYQQLPGTAPKLLIYSNNERPSGVPDRFSGSKSGTSASLAISGLRSEDEADYYCAAWDDSLNGPVFGGGTKLTVL | – | – | – | – | – | – | – | – | – | – | – | – | binding result [9]: no binding |
| TPP-18087 (antibody, mouse IgG1, V domains shown, mIgG1, Lambda) VH: EVQLLESGGGLVQPGGSLRLSCAASGFTFSHYDMNWLRQAPGKGLEWVGVISYDGSNKFYADFVKGRFTISRDNSKNTLYLQMNSLRAEDTAVYYCARTPGSHFDYWGQGTLVTVSS VL: QSVLTQPPSASGTPGQRVTISCSGSSSNIGNNAVNWYQQLPGTAPKLLIYYDDLLPSGVPDRFSGSKSGTSASLAISGLRSEDEADYYCSAWDDSLNGVVFGGGTKLTVLG | – | – | – | – | – | – | – | – | – | – | – | – | Efficacy (%) [10]: 25%; Efficacy (%) [11]: 0%; Efficacy (%) (RGA) [12]: 47.7%; Efficacy (%) (RGA) [13]: 47.8% |
